Source: US20250215499A1 (CHINESE UNIVERSITY OF HONG KONG, published 2025)

How the values were obtained:
SQSTM1/p62 = SQSTM1/p62 (UniProt Q13501 2-440, limits assumed); assay: co-immunoprecipitation
BECN1 = target: T1, BECN1 (UniProt Q14457 1-450, limits assumed); assay: co-immunoprecipitation
T1 construct: The ubiquitination co-IPs used endogenous protein from T-REx-293 and KYSE150 cells; also called Beclin 1; Beclin 1/BECN1
T1 sequence (Q14457 whole entry): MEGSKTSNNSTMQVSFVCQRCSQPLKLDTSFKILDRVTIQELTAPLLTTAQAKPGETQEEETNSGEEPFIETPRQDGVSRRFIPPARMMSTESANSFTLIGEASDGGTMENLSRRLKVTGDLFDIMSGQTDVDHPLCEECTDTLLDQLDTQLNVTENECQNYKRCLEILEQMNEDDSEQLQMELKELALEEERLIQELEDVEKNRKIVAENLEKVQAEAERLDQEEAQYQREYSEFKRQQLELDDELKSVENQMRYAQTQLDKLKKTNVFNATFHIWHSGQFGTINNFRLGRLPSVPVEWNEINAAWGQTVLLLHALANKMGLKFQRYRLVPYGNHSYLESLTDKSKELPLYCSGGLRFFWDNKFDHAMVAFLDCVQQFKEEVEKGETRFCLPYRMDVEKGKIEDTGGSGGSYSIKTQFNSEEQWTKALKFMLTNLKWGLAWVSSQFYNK

binding result (SQSTM1/p62): no binding
binding result (BECN1): no binding
B1: SP0495 (small protein of KIAA0495), encoded by KIAA0495-ORF2 (other)
chain: MCLLSSSAASDLAATSLTAHPCHPPLPRQPQPQLILSGSPSIGTVPPPAVGHTSLLPVNPPAISTTTSDLSAREDATPSASTGHLSVFPAFQVKIPAVPSEQTSQSFSEASHRVLPGGGPRCSRDFGAGVAGHLGLGIFGVGFGSPALLQSVVDENSCCLLYVVEDQLCDVEQAFRAEHLGQHQSGSGTGCRHCPQRPAAL
notes: The 1-18 transmembrane/signal peptide domain is only a bioinformatic prediction and was not removed; also called KIAA0495-ORF2/SP0495; KIAA0495-ORF2 protein
